According to publication PMC6058054, “Mining the Genome of Streptomyces leeuwenhoekii: Two New Type I Baeyer–Villiger Monooxygenases From Atacama Desert” (Frontiers in Microbiology, 2018):

B1: Sle_62070 (Streptomyces leeuwenhoekii) (protein)
chain: MTQGQTLSPEELAGLRERYRLERERRVRPDGTRQYLAADAEFGYYAEDPYAGEPPEREPLRDRVDVAVVGGGFGGILAGARLRRRGVRRVRVIEKGGDFGGTWYWNRYPGIHCDIESHVYLPLLDETGYVPEWKYAPGEEIRRHAVRIAEKFDLYADAQFSTAVTSLTWDEETRAWVVATDRGDEFRATYVITATGTLSELKLPGIPGIETFEGHTFHTSRWDYAYTGGTPDGGLTGLADKRVGVVGTGATGIQVIPKLAEDAGHLYVFQRTPSSVDVRANRRTTPQDVGADRDGWARERRDNFLRIVSGETAEEDLVADQWTASAGLLEKLVPSFRRQGDRTAFEAAYEVADAAKMNEIRARVERIVTDRDTAEKLKPWYRYACKRPTFSDTYLQAFNRDNVTLVDTADTHGIERMTERGVVVGGTEYALDCLIFATGFSVGVSGVHSGRLPVRGRGGVQLLDAWRKEGPRTLHGFTSNGFPNLIQMGTVQNASSVNYTHVLDEQAVHAAALVAAAEAKGAVIEPSREAEDAWIAVLAEDAPDHEWFHAECTPGYYNAEGRGRAKGPTAYPHGASAFHELLRRWREESMDGILRAGTPVRGPGGSTVS
notes: full-length, fused to N-terminal His-tagged phosphite dehydrogenase (PTDH) in pCRE2, fusion kept; expressed in E. coli NEB 10-beta; FAD flavoprotein

Assays:
Sle_13190 = target: T1, Sle_13190 (Streptomyces leeuwenhoekii, UniProt A0A0F7VUW7); test: UV-vis spectrum of purified flavoprotein; FAD quantified after SDS unfolding; format: binding; conditions: co-purified FAD
T1 construct: full-length, fused to N-terminal His-tagged phosphite dehydrogenase (PTDH) in pCRE2, fusion kept; expressed in E. coli NEB 10-beta; FAD flavoprotein

Sle_62070 = target: T2, Sle_62070 (Streptomyces leeuwenhoekii, UniProt A0A0F7W6X7); test: as above; format: binding; conditions: co-purified FAD
T2 construct: full-length, fused to N-terminal His-tagged phosphite dehydrogenase (PTDH) in pCRE2, fusion kept; expressed in E. coli NEB 10-beta; FAD flavoprotein

purified protein [1] = substrate: CC(=O)Cc1ccccc1; test: purified protein; conditions: 150 uM NADPH, 10 uM FAD, 50 mM Tris-HCl pH 8.0, 10% glycerol, 100 mM NaCl, 2.5% 1,4-dioxane, 25 C
purified protein [2] = substrate: O=C1CC2C=CCC12; test: purified protein; format: biochemical, Streptomyces leeuwenhoekii; conditions: 150 uM NADPH, 10 uM FAD, 50 mM Tris-HCl pH 8.0, 10% glycerol, 100 mM NaCl, 2.5% 1,4-dioxane, 25 C
purified protein [3] = substrate: O=C1CCC(c2ccccc2)CC1; test: purified protein; format: biochemical, Streptomyces leeuwenhoekii; conditions: 150 uM NADPH, 10 uM FAD, 50 mM Tris-HCl pH 8.0, 10% glycerol, 100 mM NaCl, 2.5% 1,4-dioxane, 25 C
purified protein [4] = substrate: O=C1CCCCC1c1ccccc1; test: purified protein; format: biochemical, Streptomyces leeuwenhoekii; conditions: 150 uM NADPH, 10 uM FAD, 50 mM Tris-HCl pH 8.0, 10% glycerol, 100 mM NaCl, 2.5% 1,4-dioxane, 25 C

| Molecule | UV-vis spectrum of purified flavoprotein; FAD quantified after SDS unfolding (Sle_13190) | UV-vis spectrum of purified flavoprotein; FAD quantified after SDS unfolding (Sle_62070) | Km (purified protein [1]) [µM] | kcat (purified protein [1]) [s⁻¹] | kcat/Km (purified protein [1]) [M⁻¹ s⁻¹] | Km (purified protein [2]) [µM] | kcat (purified protein [2]) [s⁻¹] | kcat/Km (purified protein [2]) [M⁻¹ s⁻¹] | kcat (purified protein [3]) [s⁻¹] | kcat/Km (purified protein [3]) [M⁻¹ s⁻¹] | kcat (purified protein [4]) [s⁻¹] | kcat/Km (purified protein [4]) [M⁻¹ s⁻¹] |
| --- | --- | --- | --- | --- | --- | --- | --- | --- | --- | --- | --- | --- |
| Cc1cc2nc3c(=O)[nH]c(=O)nc-3n(C[C@H](O)[C@H](O)[C@H](O)COP(=O)(O)OP(=O)(O)OC[C@H]3O[C@@H](n4cnc5c(N)ncnc54)[C@H](O)[C@@H]3O)c2cc1C [FAD] | a clear yellow color was indicative of proper folding and FAD binding | a clear yellow color was indicative of proper folding and FAD binding | – | – | – | – | – | – | – | – | – | – |
| B1 | – | – | 3000 ± 300 | 4.1 | 1300 | 200 ± 10 | 4 ± 0.06 | 20000 | > 4 | 1300 | > 4 | 1300 |
